Data as given in patent US9090705B2.

Tests used:
[1] = target: Aspart precursor
[2] = target: Lispro precursor
[3] = target: Glulisine precursor
[4] = target: Aspart precursor; remark: listed apart in the source

Substance	Yield (%) of Aspart, trypsin and Carboxypeptidase B added together [1]	Yield (%) of Lispro, trypsin and Carboxypeptidase B added together [2]	Yield (%) of Glulisine, trypsin and Carboxypeptidase B added together [3]	conversion of the precursor by trypsin alone (chromatographic profile after 8 hr) [4]
Carboxypeptidase B (enzyme)	75%	78%	78%	
Trypsin (enzyme)				45%
